{"source": "paper PMC4113483", "biological_target": "Mu-HSSKLQ-AMC (morpholinocarbonyl-His-Ser-Ser-Lys-Leu-Gln-7-amido-4-methylcoumarin), fluorogenic PSA substrate", "assay": "Spectrofluorimetric pre-steady-state (burst) and steady-state kinetics of AMC release (excitation 380 nm, emission 460 nm)", "conditions": "37.0 C, 100 mM NaCl, 10 mM CaCl2, 25 mM bis-tris-HCl and 25 mM tris-HCl between pH 6.5 and 9.0 (the buffer used at each pH is not stated)"}
{"substance": "Prostate-specific antigen (PSA, kallikrein-related peptidase 3, KLK3)", "values": [{"measurement": "pKES1, group 1 of PSA (unassigned; tentatively Lys95E of the kallikrein loop)", "setting": "pH 6.5-9.0", "value": 8.59, "unit": "pH units"}, {"measurement": "pKES2, group 2 of PSA (unassigned; tentatively a histidine, possibly His57 or His172)", "setting": "pH 6.5-9.0", "value": 5.11, "unit": "pH units"}, {"measurement": "pKU1, group 1 of PSA (unassigned; tentatively Lys95E of the kallikrein loop)", "setting": "pH 6.5-9.0", "value": 8.02, "unit": "pH units"}, {"measurement": "pKU2, group 2 of PSA (unassigned; tentatively a histidine, possibly His57 or His172)", "setting": "pH 6.5-9.0", "value": 7.61, "unit": "pH units"}, {"measurement": "Ks", "setting": "pH 6.5", "value": 490, "unit": "µM"}, {"measurement": "Ks", "setting": "pH 7.0", "value": 120, "unit": "µM"}, {"measurement": "Ks", "setting": "pH 7.5", "value": 62, "unit": "µM"}, {"measurement": "Ks", "setting": "pH 8.0", "value": 42, "unit": "µM"}, {"measurement": "Ks", "setting": "pH 8.5", "value": 55, "unit": "µM"}, {"measurement": "Ks", "setting": "pH 9.0", "value": 75, "unit": "µM"}]}
